Assay results reported in publication PMC3514405.

Target: BLV nucleocapsid protein (NC) (Bovine leukemia virus, UniProt P03344)
Experiment: ITC

Sequence of BLV nucleocapsid protein (NC) (P03344 324-392, tags left off): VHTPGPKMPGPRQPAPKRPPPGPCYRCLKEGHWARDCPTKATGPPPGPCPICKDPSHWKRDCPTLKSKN

For CAACUCUCUG (ssRNA) [SLV-VI linker (10 nt)], the Kd was 92 ± 16 nM.
